The experiment addresses TNF-receptor-1 (TNF-R1) (human) (UniProt P19438). The experiment is described as follows: cell-based or functional assay.

From patent US20130123201A1, “MODULATION OF CYTOKINE-INDUCED CHRONIC INFLAMMATORY RESPONSES” (UNIVERSITY OF MANITOBA, priority 2010, published 2013) come the findings set out here.

Sequence of TNF-receptor-1 (TNF-R1) (human) (P19438 30-455): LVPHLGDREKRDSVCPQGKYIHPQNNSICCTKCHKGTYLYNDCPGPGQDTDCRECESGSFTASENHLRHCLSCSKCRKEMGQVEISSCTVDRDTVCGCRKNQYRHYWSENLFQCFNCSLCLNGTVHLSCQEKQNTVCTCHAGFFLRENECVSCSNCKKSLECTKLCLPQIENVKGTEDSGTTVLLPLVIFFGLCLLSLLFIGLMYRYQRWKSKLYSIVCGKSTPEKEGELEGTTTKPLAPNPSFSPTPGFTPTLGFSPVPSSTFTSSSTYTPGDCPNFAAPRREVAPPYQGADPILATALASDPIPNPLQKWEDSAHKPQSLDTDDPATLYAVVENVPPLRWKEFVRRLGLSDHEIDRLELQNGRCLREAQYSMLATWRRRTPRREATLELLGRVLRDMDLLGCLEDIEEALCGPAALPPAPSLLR

On to “Recombinant human cytokine IL-32γ (from UniProt P24001 31-234) (ligand)”, for which the Relative fold change in phosphorylation of the TNF-R1 S274 array peptide (kinome profiling, THP-1 cells, 20 ng/mL IL-32, 15 min) amounted to 4.7 fold.
